One may read the Ki as the dissociation constant of the complex between target and ligand, obtained from inhibition or displacement.

One molecule from PMC5286520 can be followed below.

Common to all, as to conditions: modification not given
Assay [1] deals with V2R (Homo sapiens), P30518. Nature of the assay: radioligand.
Assay [2] addresses T1, OTR (Homo sapiens), P30559.
T1 chain: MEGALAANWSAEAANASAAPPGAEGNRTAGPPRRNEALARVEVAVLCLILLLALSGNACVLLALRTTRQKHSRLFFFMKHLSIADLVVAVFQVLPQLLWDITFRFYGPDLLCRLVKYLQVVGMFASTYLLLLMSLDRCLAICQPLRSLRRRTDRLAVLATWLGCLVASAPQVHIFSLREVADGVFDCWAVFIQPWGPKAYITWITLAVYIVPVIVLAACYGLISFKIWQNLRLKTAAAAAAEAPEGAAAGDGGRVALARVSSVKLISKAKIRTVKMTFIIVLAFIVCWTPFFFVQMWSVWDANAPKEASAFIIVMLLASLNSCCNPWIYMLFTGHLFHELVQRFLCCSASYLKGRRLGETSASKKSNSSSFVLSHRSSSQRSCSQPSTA
Nature of the assay: radioligand displacement.

Assay [3] addresses V1aR (Homo sapiens), P37288. Nature of the assay: radioligand displacement. (Loss of bound radioactivity is the signal in a displacement assay; it reports binding, not function.)
Assay [4] addresses T2, V1bR (Homo sapiens), P47901.
T2 chain: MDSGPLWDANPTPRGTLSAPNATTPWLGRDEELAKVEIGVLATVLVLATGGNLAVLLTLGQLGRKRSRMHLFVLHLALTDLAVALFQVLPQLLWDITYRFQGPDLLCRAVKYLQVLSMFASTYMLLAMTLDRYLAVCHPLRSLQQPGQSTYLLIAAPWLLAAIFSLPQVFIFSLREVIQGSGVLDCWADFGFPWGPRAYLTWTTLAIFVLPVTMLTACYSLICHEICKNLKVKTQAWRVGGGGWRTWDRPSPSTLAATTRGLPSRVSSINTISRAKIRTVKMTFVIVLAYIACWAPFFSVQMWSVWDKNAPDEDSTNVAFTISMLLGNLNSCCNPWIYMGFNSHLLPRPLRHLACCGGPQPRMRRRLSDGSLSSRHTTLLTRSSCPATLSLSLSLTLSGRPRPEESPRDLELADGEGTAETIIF
Nature of the assay: radioligand displacement.

Sequence of V1aR (Homo sapiens), P37288 (P37288 whole entry): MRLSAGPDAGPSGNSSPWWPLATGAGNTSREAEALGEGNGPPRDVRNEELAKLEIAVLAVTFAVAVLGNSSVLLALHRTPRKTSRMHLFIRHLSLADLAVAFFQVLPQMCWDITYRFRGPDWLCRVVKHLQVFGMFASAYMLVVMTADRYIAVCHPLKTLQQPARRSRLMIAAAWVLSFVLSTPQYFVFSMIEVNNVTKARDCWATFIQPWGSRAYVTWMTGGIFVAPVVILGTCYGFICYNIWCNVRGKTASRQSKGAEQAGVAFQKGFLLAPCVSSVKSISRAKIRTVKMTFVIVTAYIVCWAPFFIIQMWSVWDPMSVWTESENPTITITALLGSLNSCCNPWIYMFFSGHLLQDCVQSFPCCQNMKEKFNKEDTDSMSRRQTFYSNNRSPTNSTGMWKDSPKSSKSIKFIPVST

On to CLITNCPRG [inotocin], for which the Ki in assay [1] is above 100000 nM; in assay [2] it was 62 nM; in assay [3], 11 nM; in assay [4], 12 nM.
